Laboratory results: PMC10842378

Columns and labels:
[1] = molecular target: FLAG-AP-DHX15 wild type (human) (UniProt O43143); test: proximity labelling
[2] = molecular target: FLAG-AP-DHX15 wild type (human) (UniProt O43143); test: split reporter

FLAG-AP-DHX15 wild type (human), sequence (O43143 whole entry): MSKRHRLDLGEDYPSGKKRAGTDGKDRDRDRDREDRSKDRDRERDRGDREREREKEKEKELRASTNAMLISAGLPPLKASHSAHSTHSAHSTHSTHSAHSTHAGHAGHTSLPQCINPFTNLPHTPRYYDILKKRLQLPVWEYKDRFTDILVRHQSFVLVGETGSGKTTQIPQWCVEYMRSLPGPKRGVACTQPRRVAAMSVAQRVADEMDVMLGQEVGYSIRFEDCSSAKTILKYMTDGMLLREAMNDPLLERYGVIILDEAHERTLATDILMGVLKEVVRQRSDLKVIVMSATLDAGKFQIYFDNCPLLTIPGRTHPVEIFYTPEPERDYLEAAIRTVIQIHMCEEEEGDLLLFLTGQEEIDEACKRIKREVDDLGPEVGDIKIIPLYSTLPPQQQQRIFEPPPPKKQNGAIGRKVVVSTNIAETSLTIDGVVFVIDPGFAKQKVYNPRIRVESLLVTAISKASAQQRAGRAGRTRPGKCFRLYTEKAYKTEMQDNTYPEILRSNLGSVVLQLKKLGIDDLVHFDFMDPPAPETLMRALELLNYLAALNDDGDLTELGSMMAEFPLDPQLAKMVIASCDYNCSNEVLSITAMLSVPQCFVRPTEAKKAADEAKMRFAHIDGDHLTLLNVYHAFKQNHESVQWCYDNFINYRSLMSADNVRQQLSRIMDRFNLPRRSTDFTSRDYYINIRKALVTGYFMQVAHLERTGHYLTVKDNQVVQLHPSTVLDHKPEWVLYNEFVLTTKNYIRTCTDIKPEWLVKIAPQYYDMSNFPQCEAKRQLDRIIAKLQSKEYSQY

Substance: HA-SUGP1-EX with the G-patch domain deleted (ΔGp) (from UniProt Q8IWZ8 1-645) (natural protein)
- fold increase of HA-SUGP1-EX pull-down [1]: 1.9 fold

Substance: SUGP1 G-patch domain alone fused to an SV40 NLS (Gp-nls), HA-EX construct (domain or fragment)
- fold increase of total biotinylated protein against FL SUGP1 [2]: 3.2 fold
